Test results reported in paper PMC5549770, “Human cytomegalovirus IE1 downregulates Hes1 in neural progenitor cells as a potential E3 ubiquitin ligase” (PLoS Pathogens, 2017).

What was measured:
His-IE1 (pET-IE1) [1] = molecular target: T1, His-IE1 (pET-IE1) (human cytomegalovirus (Towne strain), UniProt P03169 1-491); experiment: pull-down; in vitro pull-down: 1μg of each purified His-tagged protein (His-IE1 or His-Δ451–475 with His-Hes1) mixed in 300μl Buffer A (50mM NaH2PO4, 300mM NaCl, pH 8.0), antibody overnight at 4°C, protein A+G agarose; settings: both partners purified
T1 construct: HCMV IE1 (UL123), wild type, cloned into pET28a; 491 amino acids (Towne); also called purified IE1; source: E. coli BL21, purified (cOmplete His-Tag Purification Resin); not shown: His6, N-terminal, kept
T1 sequence: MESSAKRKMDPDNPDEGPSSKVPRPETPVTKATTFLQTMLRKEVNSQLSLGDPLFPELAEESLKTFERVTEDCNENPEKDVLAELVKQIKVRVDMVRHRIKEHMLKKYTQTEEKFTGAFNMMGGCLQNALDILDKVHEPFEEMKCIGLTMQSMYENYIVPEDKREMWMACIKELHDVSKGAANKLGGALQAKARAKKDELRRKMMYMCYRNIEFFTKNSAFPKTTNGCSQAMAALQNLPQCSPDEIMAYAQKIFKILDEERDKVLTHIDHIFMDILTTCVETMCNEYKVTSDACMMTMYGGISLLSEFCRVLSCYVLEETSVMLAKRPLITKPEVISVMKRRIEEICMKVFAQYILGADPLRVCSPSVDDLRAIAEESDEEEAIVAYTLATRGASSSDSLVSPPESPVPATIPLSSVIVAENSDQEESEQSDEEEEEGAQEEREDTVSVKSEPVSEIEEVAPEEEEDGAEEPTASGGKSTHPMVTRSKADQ

His-IE1 (pET-IE1) [2] = molecular target: T1, His-IE1 (pET-IE1); experiment: pull-down; purified His-Sp100A mixed with Ubc5a in the presence of purified His-IE1; Sp100A- or Ubc5a-directed IP, IB; Buffer A, 4°C; settings: both partners purified

B1: His-Hes1 (pET-Hes1) (natural protein, human, UniProt Q14469 1-280, looked up)
chain: MPADIMEKNSSSPVAATPASVNTTPDKPKTASEHRKSSKPIMEKRRRARINESLSQLKTLILDALKKDSSRHSKLEKADILEMTVKHLRNLQRAQMTAALSTDPSVLGKYRAGFSECMNEVTRFLSTCEGVNTEVRTRLLGHLANCMTQINAMTYPGQPHPALQAPPPPPPGPGGPQHAPFAPPPPLVPIPGGAAPPPGGAPCKLGSQAGEAAKVFGGFQVVPAPDGQFAFLIPNGAFAHSGPVIPVYTSNSGTSVGPNAVSPSSGPSLTADSMWRPWRN
notes: human Hes1 cloned into pET28a; also called purified Hes1; source: E. coli BL21, purified (cOmplete His-Tag Purification Resin); not shown: His6, N-terminal, kept
binding result (His-IE1 (pET-IE1) [1]): binds

B2: His-Sp100A (pET-Sp100A) (natural protein)
chain: not shown
notes: human Sp100A (isoform A of the nuclear autoantigen Sp-100) cloned into pET28a; also called purified Sp100A; source: E. coli BL21, purified (cOmplete His-Tag Purification Resin); not shown: His6, N-terminal, kept
binding result (His-IE1 (pET-IE1) [2]): binds
